The supplement of paper PMC10567573

B1: RHOBTB3 (parent)
chain: GGADIIVIKYNVNDKFSFHEVKDN

Variants of: B1
Assay: protein stability index of a GFP-peptide fusion (GPS, HEK-293T) (PSI 1-6); higher = more stable
Details: c terminus: a fixed tail appended
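Further: lentivirally expressed fusions sorted by FACS into six bins by GFP to DsRed ratio, PSI derived from sequencing read proportions per bin multiplied by bin number.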

Variant	protein stability index
GGADIIVIKYNVNDKFSMHEVKDN [F18M]	1.87
GGADIIVIKYNVNDKFSWHEVKDN [F18W]	2.08
GGADIIVIKYNVNDKFSVHEVKDN [F18V]	2.49
GGADIIVIKYNVNDKFSYHEVKDN [F18Y]	2.72
GGADIIVIKYNVNDKFSCHEVKDN [F18C]	3.13
GGADIIVIKYNVNDKFSSHEVKDN [F18S]	1.86
GGADIIVIKYNVNDKFSGHEVKDN [F18G]	2.03
GGADIIVIKYNVNDKFSEHEVKDN [F18E]	1.76
GGADIIVIKYNVNDKFSHHEVKDN [F18H]	1.76
GGADIIVIKYNVNDKFSNHEVKDN [F18N]	1.39
GGADIIVIKYNVNDKFSTHEVKDN [F18T]	2.63
GGADIIVIKYNVNDKFSLHEVKDN [F18L]	2.53
GGADIIVIKYNVNDKFSKHEVKDN [F18K]	1.78
GGADIIVIKYNVNDKFSIHEVKDN [F18I]	1.95
GGADIIVIKYNVNDKFSQHEVKDN [F18Q]	1.99
GGADIIVIKYNVNDKFSRHEVKDN [F18R]	4.04
GGADIIVIKYNVNDKFSPHEVKDN [F18P]	1.95
GGADIIVIKYNVNDKFSAHEVKDN [F18A]	3.47
GGADIIVIKYNVNDKFSDHEVKDN [F18D]	2.26
GGADIIVIKYNVNDKFSFHEVKDA [N24A]	2.09
GGADIIVIKYNVNDKFSFHEVKDC [N24C]	2.34
GGADIIVIKYNVNDKFSFREVKDN [H19R]	2.82
GGADIIVIKYNVNDKFSFNEVKDN [H19N]	3.79
GGADIIVIKYNVNDKFSFFEVKDN [H19F]	3.33

Variant	protein stability index
GGADIIVIKYNVNDKFSFYEVKDN [H19Y]	3.29
GGADIIVIKYNVNDKFSFIEVKDN [H19I]	1.54
GGADIIVIKYNVNDKFSFMEVKDN [H19M]	3.71
GGADIIVIKYNVNDKFSFPEVKDN [H19P]	2.55
GGADIIVIKYNVNDKFSFTEVKDN [H19T]	2.52
GGADIIVIKYNVNDKFSFEEVKDN [H19E]	2.5
GGADIIVIKYNVNDKFSFDEVKDN [H19D]	1.95
GGADIIVIKYNVNDKFSFVEVKDN [H19V]	2.72
GGADIIVIKYNVNDKFSFQEVKDN [H19Q]	3.57
GGADIIVIKYNVNDKFSFSEVKDN [H19S]	2.72
GGADIIVIKYNVNDKFSFKEVKDN [H19K]	2.44
GGADIIVIKYNVNDKFSFGEVKDN [H19G]	2.55
GGADIIVIKYNVNDKFSFCEVKDN [H19C]	3.17
GGADIIVIKYNVNDKFSFAEVKDN [H19A]	2.27
GGADIIVIKYNVNDCFSFHEVKDN [K15C]	4.37
GGADIIVIKYNVNDDFSFHEVKDN [K15D]	4.13
GGADIIVIKYNVNDVFSFHEVKDN [K15V]	3.95
GGADIIVIKYNVNDGFSFHEVKDN [K15G]	4.47
GGADIIVIKYNVNDYFSFHEVKDN [K15Y]	2.75
GGADIIVIKYNVNDFFSFHEVKDN [K15F]	2.8
GGADIIVIKYNVNDHFSFHEVKDN [K15H]	2.87
GGADIIVIKYNVNDNFSFHEVKDN [K15N]	3.83
GGADIIVIKYNVNDEFSFHEVKDN [K15E]	2.03
GGADIIVIKYNVNDPFSFHEVKDN [K15P]	2.59

Variant	protein stability index
GGADIIVIKYNVNDSFSFHEVKDN [K15S]	2.73
GGADIIVIKYNVNDWFSFHEVKDN [K15W]	3.18
GGADIIVIKYNVNDLFSFHEVKDN [K15L]	3.48
GGADIIVIKYNVNDQFSFHEVKDN [K15Q]	2.13
GGADIIVIKYNVNDKFSFHEVKLN [D23L]	3.42
GGADIIVIKYNVNDKFSFHEVKYN [D23Y]	2.28
GGADIIVIKYNVNDKFSFHEVKCN [D23C]	2.08
GGADIIVIKYNVNDKFSFHEVKWN [D23W]	3.21
GGADIIVIKYNVNDKFSFHEVKAN [D23A]	2.71
GGADIIVIKYNVNDKFSFHEVKPN [D23P]	3.16
GGADIIVIKYNVNDKFSFHEVKSN [D23S]	2.21
GGADIIVIKYNVNDKFSFHEVKEN [D23E]	2.68
GGADIIVIKYNVNDKFSFHEVKVN [D23V]	2.83
GGADIIVIKYNVNDKFSFHEVKQN [D23Q]	2.76
GGADIIVIKYNVNDKFSFHEVKHN [D23H]	3.28
GGADIIVIKYNVNDKFSFHEVKGN [D23G]	2.34
GGADIIVIKYNVNDKFSFHEVKIN [D23I]	2.36
GGADIIVIKYNVNDKFSFHEVKTN [D23T]	4.21
GGADIIVIKYNVNDKFSFHEVKMN [D23M]	2.02
GGADIIVIKYNVNDKFSFHEVKNN [D23N]	2.44
GGADIIVIKYNVWDKFSFHEVKDN [N13W]	1.96
GGADIIVIKYNVVDKFSFHEVKDN [N13V]	3.83
GGADIIVIKYNVEDKFSFHEVKDN [N13E]	2.71
GGADIIVIKYNVYDKFSFHEVKDN [N13Y]	1.67

Variant	protein stability index
GGADIIVIKYNVIDKFSFHEVKDN [N13I]	2.93
GGADIIVIKYNVKDKFSFHEVKDN [N13K]	2.92
GGADIIVIKYNVHDKFSFHEVKDN [N13H]	2.57
GGADIIVIKYNVADKFSFHEVKDN [N13A]	3.68
GGADIIVIKYNVPDKFSFHEVKDN [N13P]	3.19
GGADIIVIKYNVQDKFSFHEVKDN [N13Q]	3.3
GGADIIVIKYNVTDKFSFHEVKDN [N13T]	1.57
GGADIIVIKYNVLDKFSFHEVKDN [N13L]	2.87
GGADIIVIKYNVFDKFSFHEVKDN [N13F]	3.47
GGADIIVIKYNVDDKFSFHEVKDN [N13D]	1.88
GGADIIVIKYNVRDKFSFHEVKDN [N13R]	1.99
GGADIIVIKYNVNDKFSFHENKDN [V21N]	1.66
GGADIIVIKYNVNDKFSFHEEKDN [V21E]	1.37
GGADIIVIKYNVNDKFSFHEQKDN [V21Q]	2.29
GGADIIVIKYNVNDKFSFHETKDN [V21T]	1.46
GGADIIVIKYNVNDKFSFHEFKDN [V21F]	3.01
GGADIIVIKYNVNDKFSFHEWKDN [V21W]	2.15
GGADIIVIKYNVNDKFSFHERKDN [V21R]	2.42
GGADIIVIKYNVNDKFSFHEMKDN [V21M]	3.97
GGADIIVIKYNVNDKFSFHEYKDN [V21Y]	2.98
GGADIIVIKYNVNDKFSFHEPKDN [V21P]	2.01
GGADIIVIKYNVNDKFSFHEHKDN [V21H]	2.15
GGADIIVIKYNVNDKFSFHEIKDN [V21I]	2.23
GGADIIVIKYNVNDKFSFHEGKDN [V21G]	3.4

Variant	protein stability index
GGADIIVIKYNVNDKFSFHEKKDN [V21K]	2.59
GGADIIVIKYNVNDKFSFHESKDN [V21S]	2.5
GGADIIVIKYNVNDKFSFHEDKDN [V21D]	1.3
GGADIIVIKYNVNDKFSFHEAKDN [V21A]	3.15
GGADIIVIKYNVNDKFSFHELKDN [V21L]	2.72
GGADIIVIKYNVNDKFSFHECKDN [V21C]	1.96
GGADIIVIKYNVNDKFQFHEVKDN [S17Q]	2.36
GGADIIVIKYNVNDKFFFHEVKDN [S17F]	3.05
GGADIIVIKYNVNDKFAFHEVKDN [S17A]	3.54
GGADIIVIKYNVNDKFIFHEVKDN [S17I]	2.65
GGADIIVIKYNVNDKFHFHEVKDN [S17H]	2.69
GGADIIVIKYNVNDKFPFHEVKDN [S17P]	2.54
GGADIIVIKYNVNDKFYFHEVKDN [S17Y]	1.63
GGADIIVIKYNVNDKFVFHEVKDN [S17V]	1.73
GGADIIVIKYNVNDKFGFHEVKDN [S17G]	2.54
GGADIIVIKYNVNDKFEFHEVKDN [S17E]	2.94
GGADIIVIKYNVNDKFTFHEVKDN [S17T]	2.25
GGADIIVIKYNVNDKFDFHEVKDN [S17D]	2.64
GGADIIVIKYNVNDKFCFHEVKDN [S17C]	2.27
GGADIIVIKYNVNDKFKFHEVKDN [S17K]	3.18
GGADIIVIKYNVNDKFRFHEVKDN [S17R]	2.35
GGADIIVIKYNVNDKFNFHEVKDN [S17N]	3.14
GGADIIVIKYNVNDKTSFHEVKDN [F16T]	2.33
GGADIIVIKYNVNDKQSFHEVKDN [F16Q]	1.85

Variant	protein stability index
GGADIIVIKYNVNDKRSFHEVKDN [F16R]	1.6
GGADIIVIKYNVNDKASFHEVKDN [F16A]	2.24
GGADIIVIKYNVNDKMSFHEVKDN [F16M]	2.04
GGADIIVIKYNVNDKNSFHEVKDN [F16N]	1.84
GGADIIVIKYNVNDKKSFHEVKDN [F16K]	1.73
GGADIIVIKYNVNDKLSFHEVKDN [F16L]	1.63
GGADIIVIKYNVNDKPSFHEVKDN [F16P]	2.55
GGADIIVIKYNVNDKWSFHEVKDN [F16W]	4.02
GGADIIVIKYNVNDKSSFHEVKDN [F16S]	3.13
GGADIIVIKYNVNDKVSFHEVKDN [F16V]	1.98
GGADIIVIKYNVNDKYSFHEVKDN [F16Y]	2.62
GGADIIVIKYNVNDKGSFHEVKDN [F16G]	2.74
GGADIIVIKYNVNDKCSFHEVKDN [F16C]	2.2
GGADIIVIKYNVNDKDSFHEVKDN [F16D]	2.07
GGADIIVIKYNVNDKISFHEVKDN [F16I]	2.88
GGADIIVIKYNVNDKESFHEVKDN [F16E]	2.12
GGADIIVIKYNVNDKHSFHEVKDN [F16H]	1.53
GGADIIVIKYNVNAKFSFHEVKDN [D14A]	3.34
GGADIIVIKYNVNHKFSFHEVKDN [D14H]	2.94
GGADIIVIKYNVNRKFSFHEVKDN [D14R]	2.36
GGADIIVIKYNVNNKFSFHEVKDN [D14N]	3.12
GGADIIVIKYNVNTKFSFHEVKDN [D14T]	2.67
GGADIIVIKYNVNYKFSFHEVKDN [D14Y]	3.38
GGADIIVIKYNVNFKFSFHEVKDN [D14F]	3.63

Variant	protein stability index
GGADIIVIKYNVNKKFSFHEVKDN [D14K]	3.14
GGADIIVIKYNVNEKFSFHEVKDN [D14E]	2.8
GGADIIVIKYNVNGKFSFHEVKDN [D14G]	1.72
GGADIIVIKYNVNSKFSFHEVKDN [D14S]	3.4
GGADIIVIKYNVNWKFSFHEVKDN [D14W]	2.63
GGADIIVIKYNVNIKFSFHEVKDN [D14I]	4.53
GGADIIVIKYNVNVKFSFHEVKDN [D14V]	4.54
GGADIIVIKYNVNMKFSFHEVKDN [D14M]	1.62
GGADIIVIKYNVNDKFSFHPVKDN [E20P]	1.33
GGADIIVIKYNVNDKFSFHGVKDN [E20G]	2.78
GGADIIVIKYNVNDKFSFHNVKDN [E20N]	3.38
GGADIIVIKYNVNDKFSFHIVKDN [E20I]	2.61
GGADIIVIKYNVNDKFSFHAVKDN [E20A]	1.55
GGADIIVIKYNVNDKFSFHMVKDN [E20M]	2.91
GGADIIVIKYNVNDKFSFHRVKDN [E20R]	2.93
GGADIIVIKYNVNDKFSFHYVKDN [E20Y]	2.26
GGADIIVIKYNVNDKFSFHDVKDN [E20D]	3.45
GGADIIVIKYNVNDKFSFHFVKDN [E20F]	2.75
GGADIIVIKYNVNDKFSFHCVKDN [E20C]	3.82
GGADIIVIKYNVNDKFSFHLVKDN [E20L]	2.02
GGADIIVIKYNVNDKFSFHKVKDN [E20K]	1.88
GGADIIVIKYNVNDKFSFHHVKDN [E20H]	1.9
GGADIIVIKYNVNDKFSFHVVKDN [E20V]	2.1
GGADIIVIKYNVNDKFSFHTVKDN [E20T]	1.52

Variant	protein stability index
GGADIIVIKYNVNDKFSFHWVKDN [E20W]	2.67
GGADIIVIKYNVNDKFSFHSVKDN [E20S]	2.76
GGADIIVIKYNVNDKFSFHEVVDN [K22V]	3.25
GGADIIVIKYNVNDKFSFHEVADN [K22A]	2.89
GGADIIVIKYNVNDKFSFHEVSDN [K22S]	2.52
GGADIIVIKYNVNDKFSFHEVPDN [K22P]	3.07
GGADIIVIKYNVNDKFSFHEVMDN [K22M]	2.35
GGADIIVIKYNVNDKFSFHEVGDN [K22G]	2.76
GGADIIVIKYNVNDKFSFHEVTDN [K22T]	2.58
GGADIIVIKYNVNDKFSFHEVDDN [K22D]	2.36
GGADIIVIKYNVNDKFSFHEVRDN [K22R]	2.61
GGADIIVIKYNVNDKFSFHEVLDN [K22L]	2.43
GGADIIVIKYNVNDKFSFHEVQDN [K22Q]	2.01
GGADIIVIKYNVNDKFSFHEVNDN [K22N]	2.1
GGADIIVIKYNVNDKFSFHEVHDN [K22H]	3.97
GGADIIVIKYNVNDKFSFHEVWDN [K22W]	2.75
GGADIIVIKYNVNDKFSFHEVFDN [K22F]	4.16
GGADIIVIKYNVNDKFSFHEVCDN [K22C]	2.88
GGADIIVIKYNVNDKFSFHEVYDN [K22Y]	3.11
GGADIIVIKYNVNDKFSFHEVEDN [K22E]	3.13
